Consider 1 sequence from paper PMC3895837.

In general, Kd refers to the free concentration of one partner at which half of the binding sites on the other are occupied at equilibrium, for simple one-to-one binding. A higher Kd goes with weaker binding.

The target of this data set is T1, Siglec-5 (Sialic acid-binding Ig-like lectin 5) (human (NB4 AML cell line)) (UniProt O15389).
T1 sequence: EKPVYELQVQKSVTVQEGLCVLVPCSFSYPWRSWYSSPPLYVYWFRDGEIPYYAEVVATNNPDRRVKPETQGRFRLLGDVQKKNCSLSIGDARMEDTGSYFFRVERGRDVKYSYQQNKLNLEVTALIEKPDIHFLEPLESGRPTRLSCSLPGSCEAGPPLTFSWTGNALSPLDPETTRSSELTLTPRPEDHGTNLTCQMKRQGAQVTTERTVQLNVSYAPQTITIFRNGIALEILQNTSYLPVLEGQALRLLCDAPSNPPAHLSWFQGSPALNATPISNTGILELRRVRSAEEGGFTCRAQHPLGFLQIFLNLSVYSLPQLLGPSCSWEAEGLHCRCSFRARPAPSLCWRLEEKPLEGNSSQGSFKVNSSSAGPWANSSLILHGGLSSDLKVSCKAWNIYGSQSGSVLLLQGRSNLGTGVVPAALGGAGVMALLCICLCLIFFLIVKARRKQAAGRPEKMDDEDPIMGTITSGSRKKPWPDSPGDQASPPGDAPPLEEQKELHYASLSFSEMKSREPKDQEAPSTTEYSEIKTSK
The data set is described as follows: flow cytometry on NB4 cells. As to conditions: PBS with 4.5 g/L glucose, 5 mM MgCl2, 0.1 mg/ml yeast tRNA, 1 mg/ml BSA (0.1% NaN3 for flow cytometry), on ice 30 min; pH not stated; JH6 and JH19 (whole-cell …). A general note: Flow cytometry measures light scatter and fluorescence of single cells or particles in a stream.

“GACGCTTACTCAGGTGTGACTCGAAGGGGTTGGGTGGGTTTATACAAATTAATTAATATTGTATGGTATATTTCGAAGGACGCAGATGAAGTCTC [K19]” showed a Kd of 12.4 nM.
